# Test results from IntAct's records for PubMed 14685257.
# B1: Polyadenylate-binding protein-interacting protein 2 (Homo sapiens), Q9BPZ3 (parent)
# chain: MKDPSRSSTSPSIINEDVIINGHSHEDDNPFAEYMWMENEEEFNRQIEEELWEEEFIERCFQEMLEEEEEHEWFIPARDLPQTMDQIQDQFNDLVISDGSSLEDLVVKSNLNPNAKEFVPGVKYGNI
# Variants of: B1
# Conditions: with pabp1_human PABPC1, P11940
# pabp1_human PABPC1, P11940, sequence (P11940 whole entry): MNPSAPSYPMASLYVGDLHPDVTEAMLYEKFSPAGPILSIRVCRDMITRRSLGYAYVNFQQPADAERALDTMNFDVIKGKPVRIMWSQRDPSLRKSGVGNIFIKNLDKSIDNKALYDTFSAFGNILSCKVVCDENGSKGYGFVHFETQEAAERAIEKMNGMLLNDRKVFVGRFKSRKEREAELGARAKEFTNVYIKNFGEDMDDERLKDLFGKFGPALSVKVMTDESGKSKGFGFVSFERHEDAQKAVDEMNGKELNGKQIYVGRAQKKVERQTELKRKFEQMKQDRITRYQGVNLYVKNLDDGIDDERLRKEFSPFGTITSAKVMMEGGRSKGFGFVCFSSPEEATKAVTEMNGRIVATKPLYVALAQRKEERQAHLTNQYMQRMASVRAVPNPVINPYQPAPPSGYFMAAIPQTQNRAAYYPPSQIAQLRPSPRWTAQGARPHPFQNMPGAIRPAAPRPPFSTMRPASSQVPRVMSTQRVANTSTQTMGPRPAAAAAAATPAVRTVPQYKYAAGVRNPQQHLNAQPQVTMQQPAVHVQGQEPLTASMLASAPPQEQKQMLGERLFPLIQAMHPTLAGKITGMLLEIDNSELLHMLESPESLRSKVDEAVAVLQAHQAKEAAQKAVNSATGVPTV
row,Variant,effect of a mutation on the interaction
1,MKDPSRSSTSPSIINEDVIINGHSHEDDNPFAEYMWMENEEEFNRQIEEELWEEEFIERCFQEMLEEEEEHEWFIPARDLPQTMDQIQDQFNDLVISDGSSLEDLVVKSNANPNAKEFVPGVKYGNI [L111A],decreasing interaction
2,MKDPSRSSTSPSIINEDVIINGHSHEDDNPFAEYMWMENEEEFNRQIEEELWEEEFIERCFQEMLEEEEEHEWFIPARDLPQTMDQIQDQFNDLVISDGSSLEDLVVKSNLNANAKEFVPGVKYGNI [P113A],decreasing interaction
3,MKDPSRSSTSPSIINEDVIINGHSHEDDNPFAEYMWMENEEEFNRQIEEELWEEEFIERCFQEMLEEEEEHEWFIPARDLPQTMDQIQDQFNDLVISDGSSLEDLVVKSNLNPNLKEFVPGVKYGNI [A115L],decreasing interaction
4,MKDPSRSSTSPSIINEDVIINGHSHEDDNPFAEYMWMENEEEFNRQIEEELWEEEFIERCFQEMLEEEEEHEWFIPARDLPQTMDQIQDQFNDLVISDGSSLEDLVVKSNLNPNAAEFVPGVKYGNI [K116A],decreasing interaction
5,MKDPSRSSTSPSIINEDVIINGHSHEDDNPFAEYMWMENEEEFNRQIEEELWEEEFIERCFQEMLEEEEEHEWFIPARDLPQTMDQIQDQFNDLVISDGSSLEDLVVKSNLNPNAKAFVPGVKYGNI [E117A],decreasing interaction
6,MKDPSRSSTSPSIINEDVIINGHSHEDDNPFAEYMWMENEEEFNRQIEEELWEEEFIERCFQEMLEEEEEHEWFIPARDLPQTMDQIQDQFNDLVISDGSSLEDLVVKSNLNPNAKEAVPGVKYGNI [F118A],disrupting interaction
7,MKDPSRSSTSPSIINEDVIINGHSHEDDNPFAEYMWMENEEEFNRQIEEELWEEEFIERCFQEMLEEEEEHEWFIPARDLPQTMDQIQDQFNDLVISDGSSLEDLVVKSNLNPNAKEFVAGVKYGNI [P120A],decreasing interaction
